Source: paper PMC10663500, “High-throughput analysis system of interaction kinetics for data-driven antibody design” (Scientific Reports, 2023)
Changes are numbered by the printed parent chain.

B1: toripalimab Fab H.F64A (Fab, V domains shown)
VH: QGQLVQSGAEVKKPGASVKVSCKASGYTFTDYEMHWVRQAPIHGLEWIGVIESETGGTAYNQKAKGRVTITADKSTSTAYMELSSLRSEDTAVYYCAREGITTVATTYYWYFDVWGQGTTVTVSS
VL: DVVMTQSPLSLPVTLGQPASISCRSSQSIVHSNGNTYLEWYLQKPGQSPQLLIYKVSNRFSGVPDRFSGSGSGTDFTLKISRVEAEDVGVYYCFQGSHVPLTFGQGTKLEIK
notes: heavy chain of Sm3 with this change; numbers count from the chain's first residue; as the light chain of Sm3; source: Brevibacillus, culture supernatant (ammonium sulfate precipitate); not shown: 6xHis, C-terminal, kept; 6xHN, C-terminal, kept
B2: toripalimab Fab H.Y109A (Fab, V domains shown)
VH: B1 VH with A64F, Y109A
VL: B1 VL
notes: as for B1
B3: toripalimab Fab H.F64Y (Fab, V domains shown)
VH: B1 VH with A64Y
VL: B1 VL
notes: as for B1
B4: toripalimab Fab H.T107A (Fab, V domains shown)
VH: B1 VH with A64F, T107A
VL: B1 VL
notes: as for B1
B5: toripalimab Fab H.G66A (Fab, V domains shown)
VH: B1 VH with A64F, G66A
VL: B1 VL
notes: as for B1
B6: toripalimab Fab H.M34A (Fab, V domains shown)
VH: B1 VH with M34A, A64F
VL: B1 VL
notes: as for B1
B7: toripalimab Fab H.V104Y (Fab, V domains shown)
VH: B1 VH with A64F, V104Y
VL: B1 VL
notes: as for B1
B8: toripalimab Fab H.T106Y (Fab, V domains shown)
VH: B1 VH with A64F, T106Y
VL: B1 VL
notes: as for B1
B9: toripalimab Fab H.E33A (Fab, V domains shown)
VH: B1 VH with E33A, A64F
VL: B1 VL
notes: as for B1
B10: toripalimab Fab H.A105Y (Fab, V domains shown)
VH: B1 VH with A64F, A105Y
VL: B1 VL
notes: as for B1
B11: toripalimab Fab L.S25Y (Fab, V domains shown)
VH: B1 VH with A64F
VL: B1 VL with S25Y
notes: as the heavy chain of Sm3; light chain of Sm3 with this change; numbers count from the chain's first residue; source: Brevibacillus, culture supernatant (ammonium sulfate precipitate); not shown: 6xHis, C-terminal, kept; 6xHN, C-terminal, kept
B12: toripalimab Fab H.W110Y (Fab, V domains shown)
VH: B1 VH with A64F, W110Y
VL: B1 VL
notes: as for B1
B13: toripalimab Fab L.S25A (Fab, V domains shown)
VH: B1 VH with A64F
VL: B1 VL with S25A
notes: as for B11
B14: toripalimab Fab H.K65A (Fab, V domains shown)
VH: B1 VH with A64F, K65A
VL: B1 VL
notes: as for B1
B15: toripalimab Fab H.G66Y (Fab, V domains shown)
VH: B1 VH with A64F, G66Y
VL: B1 VL
notes: as for B1
B16: toripalimab Fab H.K65Y (Fab, V domains shown)
VH: B1 VH with A64F, K65Y
VL: B1 VL
notes: as for B1
B17: toripalimab Fab L.S26A (Fab, V domains shown)
VH: B1 VH with A64F
VL: B1 VL with S26A
notes: as for B11
B18: toripalimab Fab H.G100A (Fab, V domains shown)
VH: B1 VH with A64F, G100A
VL: B1 VL
notes: as for B1
B19: toripalimab Fab H.T106A (Fab, V domains shown)
VH: B1 VH with A64F, T106A
VL: B1 VL
notes: as for B1
B20: toripalimab Fab H.F112Y (Fab, V domains shown)
VH: B1 VH with A64F, F112Y
VL: B1 VL
notes: as for B1
B21: toripalimab Fab H.V104A (Fab, V domains shown)
VH: B1 VH with A64F, V104A
VL: B1 VL
notes: as for B1
B22: toripalimab Fab H.V114Y (Fab, V domains shown)
VH: B1 VH with A64F, V114Y
VL: B1 VL
notes: as for B1
B23: toripalimab Fab H.T107Y (Fab, V domains shown)
VH: B1 VH with A64F, T107Y
VL: B1 VL
notes: as for B1
B24: toripalimab Fab L.R24Y (Fab, V domains shown)
VH: B1 VH with A64F
VL: B1 VL with R24Y
notes: as for B11
B25: toripalimab Fab L.R24A (Fab, V domains shown)
VH: B1 VH with A64F
VL: B1 VL with R24A
notes: as for B11
B26: toripalimab Fab H.V114A (Fab, V domains shown)
VH: B1 VH with A64F, V114A
VL: B1 VL
notes: as for B1

What follows are binders tested against T1, human programmed cell death protein 1 (hPD-1) C93S (aa 24-167) (Homo sapiens, UniProt Q15116, C93S) (assay: SPR; Carterra LSA; Fab from the ammonium sulfate precipitate of the culture supernatant immobilised on a NiHC200M chip; hPD-1 (1-1024 nM) or mPD-1-Fc (4-1024 nM) as analyte, fourfold dilution series, no regeneration; HBS-EP pH 7.4, 25 °C; medians over the spots of a construct, KD = koff/kon). Settings: one partner purified.
T1 construct: made as a fusion with a TEV site and human Fc; the Fc was cut off with TEV protease; source: Expi293F, purified (Protein A, TEV cleavage of Fc, SEC; monomer fractions); not shown: Fc (human), C-terminal, cleaved
Method in brief: (§1)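 Human PD-1 (1–1024 nM) or mouse PD-1-Fc (4–1024 nM), in fourfold series, was flowed without regeneration over Fabs captured in duplicate on a NiHC200M chip (Carterra LSA, 25 °C), using 10 min association and 5 min dissociation. The Fabs had been recovered from Brevibacillus culture supernatants by ammonium sulfate precipitation and redissolved in HBS-EP. For binding constants, KD was defined as koff/kon from per-construct medians, with rates fitted by the kdka model under slow- or fast-dissociation settings (best fit) and unconfirmed binders set to kon 10^3 […] and koff 10^−2 s^−1.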

T1 sequence (Q15116 24-167 C93S): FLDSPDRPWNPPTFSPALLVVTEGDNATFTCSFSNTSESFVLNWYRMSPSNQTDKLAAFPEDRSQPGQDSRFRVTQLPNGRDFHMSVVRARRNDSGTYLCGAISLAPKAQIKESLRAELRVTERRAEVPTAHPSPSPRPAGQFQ

Binder | Kd | koff | kon
B1 | < 1.4 nM | < 1e-05 s⁻¹ | 7170 M⁻¹ s⁻¹
B2 | 0.608 nM | 1.41e-05 s⁻¹ | 23200 M⁻¹ s⁻¹
B3 | 1.17 nM | 3.98e-05 s⁻¹ | 34200 M⁻¹ s⁻¹
B4 | < 1.53 nM | < 1e-05 s⁻¹ | 6520 M⁻¹ s⁻¹
B5 | < 1.56 nM | < 1e-05 s⁻¹ | 6410 M⁻¹ s⁻¹
B6 | 0.968 nM | 3.28e-05 s⁻¹ | 33900 M⁻¹ s⁻¹
B7 | 1.17 nM | 1.81e-05 s⁻¹ | 15500 M⁻¹ s⁻¹
B8 | 0.833 nM | 1.75e-05 s⁻¹ | 21000 M⁻¹ s⁻¹
B9 | 1.37 nM | 1.31e-05 s⁻¹ | 9540 M⁻¹ s⁻¹
B10 | < 0.492 nM | < 1e-05 s⁻¹ | 20300 M⁻¹ s⁻¹
B11 | 1.93 nM | 1.18e-05 s⁻¹ | 6090 M⁻¹ s⁻¹
B12 | < 1.51 nM | < 1e-05 s⁻¹ | 6610 M⁻¹ s⁻¹
B13 | < 0.503 nM | < 1e-05 s⁻¹ | 19900 M⁻¹ s⁻¹
B14 | < 1.5 nM | < 1e-05 s⁻¹ | 6670 M⁻¹ s⁻¹
B15 | < 0.85 nM | < 1e-05 s⁻¹ | 11800 M⁻¹ s⁻¹
B16 | 1.14 nM | 1.86e-05 s⁻¹ | 16300 M⁻¹ s⁻¹
B17 | 0.802 nM | 1.95e-05 s⁻¹ | 24300 M⁻¹ s⁻¹
B18 | 0.593 nM | 1.42e-05 s⁻¹ | 23900 M⁻¹ s⁻¹
B19 | 0.743 nM | 1.56e-05 s⁻¹ | 21000 M⁻¹ s⁻¹
B20 | < 0.731 nM | < 1e-05 s⁻¹ | 13700 M⁻¹ s⁻¹
B21 | 4.51 nM | 8.98e-05 s⁻¹ | 19900 M⁻¹ s⁻¹
B22 | 1.23 nM | 2.39e-05 s⁻¹ | 19400 M⁻¹ s⁻¹
B23 | < 0.315 nM | < 1e-05 s⁻¹ | 31700 M⁻¹ s⁻¹
B24 | < 1.44 nM | < 1e-05 s⁻¹ | 6930 M⁻¹ s⁻¹
B25 | < 0.696 nM | < 1e-05 s⁻¹ | 14400 M⁻¹ s⁻¹
B26 | < 1.5 nM | < 1e-05 s⁻¹ | 6670 M⁻¹ s⁻¹

What follows are binders tested against T2, mouse programmed cell death protein 1 Fc fusion protein (mPD-1-Fc), mPD-1 C60S (aa 25-167) (Mus musculus, UniProt Q02242, stabilised) in the same assay as above. Settings: one partner purified.
T2 construct: not cleaved; source: Expi293F, purified (Protein A, SEC; dimeric fraction); not shown: Fc (human), C-terminal, kept
Method in brief: as §1

Binder | Kd | koff | kon
B1 | 59.7 nM | 0.00193 s⁻¹ | 32400 M⁻¹ s⁻¹
B2 | 49.7 nM | 0.00179 s⁻¹ | 36000 M⁻¹ s⁻¹
B3 | 36.3 nM | 0.00224 s⁻¹ | 61600 M⁻¹ s⁻¹
B4 | 232 nM | 0.00703 s⁻¹ | 30300 M⁻¹ s⁻¹
B5 | 223 nM | 0.00674 s⁻¹ | 30200 M⁻¹ s⁻¹
B6 | 153 nM | 0.0068 s⁻¹ | 44300 M⁻¹ s⁻¹
B7 | 96.2 nM | 0.00366 s⁻¹ | 38000 M⁻¹ s⁻¹
B8 | 140 nM | 0.00601 s⁻¹ | 43000 M⁻¹ s⁻¹
B9 | 103 nM | 0.00372 s⁻¹ | 36200 M⁻¹ s⁻¹
B10 | 95.5 nM | 0.00349 s⁻¹ | 36500 M⁻¹ s⁻¹
B11 | 125 nM | 0.00412 s⁻¹ | 32900 M⁻¹ s⁻¹
B12 | 166 nM | 0.00571 s⁻¹ | 34500 M⁻¹ s⁻¹
B13 | 65.2 nM | 0.00369 s⁻¹ | 56600 M⁻¹ s⁻¹
B14 | 257 nM | 0.00911 s⁻¹ | 35400 M⁻¹ s⁻¹
B15 | 393 nM | 0.0111 s⁻¹ | 28100 M⁻¹ s⁻¹
B16 | 299 nM | 0.012 s⁻¹ | 40300 M⁻¹ s⁻¹
B17 | 75 nM | 0.00379 s⁻¹ | 50500 M⁻¹ s⁻¹
B18 | 464 nM | 0.0353 s⁻¹ | 76100 M⁻¹ s⁻¹
B19 | 107 nM | 0.00423 s⁻¹ | 39700 M⁻¹ s⁻¹
B20 | 59.7 nM | 0.00308 s⁻¹ | 51700 M⁻¹ s⁻¹
B21 | 81.5 nM | 0.00354 s⁻¹ | 43400 M⁻¹ s⁻¹
B22 | 235 nM | 0.00887 s⁻¹ | 37800 M⁻¹ s⁻¹
B23 | 137 nM | 0.00432 s⁻¹ | 31600 M⁻¹ s⁻¹
B24 | 133 nM | 0.0047 s⁻¹ | 35400 M⁻¹ s⁻¹
B25 | 198 nM | 0.0079 s⁻¹ | 39900 M⁻¹ s⁻¹
B26 | 201 nM | 0.00764 s⁻¹ | 38100 M⁻¹ s⁻¹
